In US20030186284A1:

Target: proteoglycan-type receptor-type protein tyrosine phosphatase (PTP?), mouse (mouse) (UniProt B9EKR1)
Assay: cell-based or functional assay

Sequence of UniProt B9EKR1 (B9EKR1 25-2312): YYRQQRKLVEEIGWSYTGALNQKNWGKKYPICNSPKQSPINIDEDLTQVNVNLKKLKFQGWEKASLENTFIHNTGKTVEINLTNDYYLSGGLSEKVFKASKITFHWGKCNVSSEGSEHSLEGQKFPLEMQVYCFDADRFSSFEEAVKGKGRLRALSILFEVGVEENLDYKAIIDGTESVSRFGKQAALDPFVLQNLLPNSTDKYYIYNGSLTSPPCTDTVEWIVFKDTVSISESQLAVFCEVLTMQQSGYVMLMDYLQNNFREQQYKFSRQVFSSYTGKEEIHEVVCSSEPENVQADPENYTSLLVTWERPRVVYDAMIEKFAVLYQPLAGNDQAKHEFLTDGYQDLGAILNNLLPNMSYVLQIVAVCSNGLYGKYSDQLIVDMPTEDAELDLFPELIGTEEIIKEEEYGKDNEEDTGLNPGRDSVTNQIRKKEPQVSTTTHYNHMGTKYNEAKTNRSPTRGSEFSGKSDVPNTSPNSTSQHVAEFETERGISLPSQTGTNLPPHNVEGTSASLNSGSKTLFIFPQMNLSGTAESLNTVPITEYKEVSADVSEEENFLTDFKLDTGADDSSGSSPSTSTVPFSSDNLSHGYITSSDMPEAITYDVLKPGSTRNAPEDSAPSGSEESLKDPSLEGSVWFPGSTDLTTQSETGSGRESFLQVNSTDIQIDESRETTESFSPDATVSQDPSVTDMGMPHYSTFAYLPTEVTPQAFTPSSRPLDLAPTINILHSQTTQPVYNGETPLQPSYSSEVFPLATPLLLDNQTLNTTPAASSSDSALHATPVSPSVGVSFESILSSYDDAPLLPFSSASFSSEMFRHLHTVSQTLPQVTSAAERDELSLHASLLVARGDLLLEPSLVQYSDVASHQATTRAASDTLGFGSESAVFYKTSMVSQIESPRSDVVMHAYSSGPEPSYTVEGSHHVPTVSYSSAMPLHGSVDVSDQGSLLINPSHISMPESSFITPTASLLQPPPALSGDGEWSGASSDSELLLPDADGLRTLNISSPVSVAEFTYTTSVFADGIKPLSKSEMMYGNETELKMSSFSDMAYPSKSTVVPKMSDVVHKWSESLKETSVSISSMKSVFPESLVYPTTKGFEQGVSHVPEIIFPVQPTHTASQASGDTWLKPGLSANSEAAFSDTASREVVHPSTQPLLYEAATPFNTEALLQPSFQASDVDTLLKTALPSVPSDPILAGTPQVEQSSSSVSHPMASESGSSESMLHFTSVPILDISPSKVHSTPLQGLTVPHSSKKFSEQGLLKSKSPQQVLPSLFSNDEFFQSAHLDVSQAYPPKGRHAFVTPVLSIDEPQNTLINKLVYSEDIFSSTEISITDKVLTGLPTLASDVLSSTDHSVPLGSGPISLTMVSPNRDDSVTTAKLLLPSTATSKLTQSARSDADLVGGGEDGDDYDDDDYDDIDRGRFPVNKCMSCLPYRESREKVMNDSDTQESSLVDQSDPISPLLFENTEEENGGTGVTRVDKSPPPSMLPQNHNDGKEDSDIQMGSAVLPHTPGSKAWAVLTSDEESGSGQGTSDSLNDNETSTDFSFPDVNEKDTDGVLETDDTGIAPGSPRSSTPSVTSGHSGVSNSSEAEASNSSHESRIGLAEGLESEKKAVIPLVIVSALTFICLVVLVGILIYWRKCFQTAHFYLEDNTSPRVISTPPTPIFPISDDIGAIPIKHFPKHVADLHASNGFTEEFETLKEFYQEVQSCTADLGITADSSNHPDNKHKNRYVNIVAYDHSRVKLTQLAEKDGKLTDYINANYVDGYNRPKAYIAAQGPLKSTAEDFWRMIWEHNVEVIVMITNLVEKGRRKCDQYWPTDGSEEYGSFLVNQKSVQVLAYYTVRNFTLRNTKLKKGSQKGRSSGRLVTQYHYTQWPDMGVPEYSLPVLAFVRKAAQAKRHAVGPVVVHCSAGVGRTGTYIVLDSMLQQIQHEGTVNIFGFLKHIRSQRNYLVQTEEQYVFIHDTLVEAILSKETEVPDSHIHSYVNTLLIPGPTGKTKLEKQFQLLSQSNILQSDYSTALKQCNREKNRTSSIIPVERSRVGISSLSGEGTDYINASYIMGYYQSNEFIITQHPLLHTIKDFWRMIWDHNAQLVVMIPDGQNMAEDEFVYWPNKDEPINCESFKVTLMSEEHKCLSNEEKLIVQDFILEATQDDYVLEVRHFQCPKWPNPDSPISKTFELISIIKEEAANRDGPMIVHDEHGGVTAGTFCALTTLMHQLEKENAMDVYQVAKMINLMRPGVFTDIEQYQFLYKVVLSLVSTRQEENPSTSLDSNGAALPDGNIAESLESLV

Substance: VacA, a toxin of Helicobacter pylori (ligand)
- epithelial damage score (EDS), wild-type (PTP?+/+) mice, VacA 0.125 mg/kg (score (scale 1-4)): 1.8
- epithelial damage score (EDS), wild-type (PTP?+/+) mice, VacA 0.250 mg/kg (score (scale 1-4)): 2.2
- inflammation score (IS), wild-type (PTP?+/+) mice, VacA 0.125 mg/kg (score (scale 1-4)): 1.4
- inflammation score (IS), wild-type (PTP?+/+) mice, VacA 0.250 mg/kg (score (scale 1-4)): 1.4
